Assay results: patent US10357549B2, “Pigment epithelium-derived factor (PEDF) and peptide derivatives thereof for use in osteoblast differentiation and bone growth” (Yale University, priority 2014, dated 2019)

Tests used:
[1] = test system: β-catenin; assay: Active β-catenin and mature osteoblast gene expression in hMSC cultures with Wnt3a and PEDF peptides; assay type: cell-based, human
Protocol: Experiments were conducted to evaluate the effect of Wnt3a and PEDF-derived peptides on β-catenin, a transcriptional regulator of osteoblast differentiation. Cultures incubated in 50 ng/ml Wnt3a alone or in combination with 100 nM PEDF-derived peptides.

[2] = test system: hMSCs; assay: Mineralization of hMSCs under continuous Wnt3a (Alizarin red, 21 days); assay type: cell-based, human; conditions: Wnt3a 50 ng/ml continuous, 21-day-old hMSC cultures
Protocol: Experiments were conducted to evaluate the effect of PEDF-derived peptides on the mineralization of hMSCs. […] For “late” groups, PEDF 34-mer was added only during the last 8 days of the differentiation protocol. Mineralization was assessed by Alizarin red staining (FIG. 14C).

[3] = test system: Wnt cell surface receptor LRP6; assay: Canonical Wnt-β-catenin signaling in hMSCs (immunoblot of phospho-LRP6 and active β-catenin); assay type: cell-based, human; conditions: for LRP6 phosphorylation: hMSCs, Wnt3a 50 ng/ml, PEDF 500 ng/ml
Protocol: The inhibitor of Wnt production (IWP-2; Tocris Bioscience, Minneapolis, Minn., USA; 2 μM×24-48 h) was used to block production of endogenous Wnt proteins (Chen et al., 2009, Nat Chem Biol, 5: 100-107; Clevers et al., 2012, Cell, 149: 1192-1205). All other chemicals, unless indicated, were purchased from Sigma (St. Louis, Mo., USA).
(§1) Adipose-derived hMSCs [American Type Culture Collection (ATCC), Manasses, Va., USA; PCS-500-011) were propagated in MSC basal medium supplemented with MSC growth kit (ATCC). Cells were CD29, CD44, CD105, and CD166 positive and negative for CD 31, CD34, and CD45. Interrogation of Wnt-β-catenin signaling was done in ATCC MSC basal medium with 2% FBS. PEDF (500 ng/ml) was added for 6 h. Passage 2 and 3 hMSCs were used for Wnt signaling experiments. For adipocyte conversion, cells (5000 cells/cm^2) were placed in adipocyte differentiation medium (ATCC; PCS-500-050) for 9-10 d. For osteoblast differentiation, cells (5000 cells/cm^2) were differentiated in osteoblast differentiation medium (ATCC; PCS-500-052) for 10-21 d. Alkaline phosphatase kit (Sigma) was used to stain osteoblasts.
(§2) Immunoblotting was performed as described previously (Schmitz et al., 2011, Am J Pathol, 179: 2990-2999). Proteins were separated by 10% SDS-PAGE on gradient gels (Bio-Rad, Hercules, Calif., USA). Antibodies against nonphosphorylated β-catenin, total β-catenin, phospho-LRP6 (serine 1490), total LRP6 (Cell Signaling Technologies, Danvers, Mass., USA), and alkaline phosphatase (Developmental Studies Hybridoma Bank, University of Iowa, Iowa City, Iowa, USA). To assess signaling through the Wnt coreceptor LRP6, 3T3 adipocyte precursors with vector and LRP6-KO shRNA were used (Liu et al., 2012, J Biol Chem, 287: 7213-7223). On confluence, cells were serum starved for 48 h, and then changed to DMEM with 10% FCS (d 0). PEDF (10 nM) was added on d 0, and cells were harvested after 48 h. Knockdown was confirmed by immunoblotting for total LRP6. β-actin (Sigma) was used as a loading control.

[4] = test system: MSCs derived from stromovascular cells (SVCs); assay: Adipogenic differentiation of murine MSCs derived from stromovascular cells (Oil Red O, qRT-PCR); assay type: cell-based, mouse
Protocol: (§3) Subcutaneous fat pads were dissected from WT and PEDF-KO mice and digested in HBSS medium containing 3% BSA (American Bioanalytical, Natick, Mass., USA), 0.8 mg/ml of type 2 collagenase (Worthington Biochemical Corp., Lakewood, N.J., USA), 1.2 mM CaCl2, and 1.0 mM MgCl2 for 1 h and 15 min in a shaking 37° C. water bath. Stromovascular fractions (SVFs) were obtained after centrifugation at 300 g for 5 min. Cells were initially plated in proliferation medium (DMEM plus 10% FBS and bFGF; 1 ng/ml) until 70-80% confluence. Adipogenic differentiation was initiated with differentiation medium (5 μg/ml insulin, 10 nM dexamethasone, 0.5 mM IBMX, and 1 μM rosiglitazone) and added on d 0 for 72 h. Afterward, cells were maintained in DMEM with 10% FBS and 5 μg/ml insulin for an additional 5 d until full differentiation as confirmed by light microscopy and Oil Red O staining. Osteoblast differentiation cocktail (10 nM dexamethasone, 50 μg/ml ascorbic acid, and 10 mM β-glycerophosphate) was used for 21 d.
(§4) RNA was isolated and processed using the RNAEasy mini kit (Qiagen, Valencia, Calif., USA). Primer probe sets were obtained from a commercial source (Applied Biosystems, Foster City, Calif., USA), and qRT-PCR was performed on a TaqMan ABI 7500 system (Applied Biosystems) as described previously (Schmitz et al., 2011, Am J Pathol, 179: 2990-2999). Target gene expression was normalized against 18S ribosomal RNA using the ΔΔCt method. On sorted adipose populations, qRT-PCR was performed on a Roche Lightcycler 480 (Roche, Basel, Switzerland) using a SYBR FAST qPCR kit (Kapa Biosystems, Woburn, Mass., USA; KK4611), and target gene expression was normalized to TBK1.
(§5) For Oil Red O staining, cells were washed in PBS and fixed in 10% formalin for 20 min. Cells were then stained with 0.5% Oil Red O for 15 min. For Alizarin Red staining, cells were washed in PBS and fixed in 10% formalin for 20 min. After being washed twice in ddH2O, cells were stained in 2% Alizarin Red S (pH 4.1). Cells were washed ≥3 times in ddH2O, and images were acquired with a Zeiss Axiophot microscope (Carl Zeiss, Oberkochen, Germany). Representative images are shown at ×40 view.

[5] = test system: hMSCs; assay: Osteoblast differentiation of hMSCs (alkaline phosphatase); assay type: cell-based, human; conditions: PEDF added to hMSCs
Protocol: as §1
Immunoblotting was performed as described previously (Schmitz et al., 2011, Am J Pathol, 179: 2990-2999). Proteins were separated by 10% SDS-PAGE on gradient gels (Bio-Rad, Hercules, Calif., USA). Antibodies against nonphosphorylated β-catenin, total β-catenin, phospho-LRP6 (serine 1490), total LRP6 (Cell Signaling Technologies, Danvers, Mass., USA), and alkaline phosphatase (Developmental Studies Hybridoma Bank, University of Iowa, Iowa City, Iowa, USA). […]

[6] = test system: 3T3-L1 adipocyte precursors; assay: PPARγ expression in 3T3-L1 adipocyte precursors with vector or LRP6 shRNA; assay type: cell-based, mouse; conditions: PEDF 10 nM, 48 h
Protocol: as §2

[7] = test system: PEDF knock-out mice; assay: PEDF i.p. treatment of young and old PEDF KO mice, trabecular bone; assay type: in vivo, mouse; conditions: young (200 ng i.p. every third day, two weeks) and old (25 μg/kg i.p. every third day, 4 weeks) PEDF KO mice
Excerpt: A ScanCo μCT 35 scanner (ScanCo Medical AG, Brüttisellen, Switzerland; Yale Center Core for Musculoskeletal Disorders) was used to assess the distal femur for trabecular and cortical bone morphology from 21-d-old WT and PEDF-KO mice in a blinded manner. Axial, sagittal, and coronal images were obtained at standardized sites, and measures of trabecular and total bone volumes and other parameters of bone density were obtained (Bouxsein et al., 2010, J Bone Miner Res, 25: 1468-1486). For histology, femurs and tibiae of 14- and 26-d-old mice were dissected, cleaned, and fixed in 70% ethanol, then further dehydrated through graded ethanols, cleared in toluene, and embedded in methyl methacrylate (MMA). After polymerization, MMA blocks were removed from the mold, cut to size, sanded, and polished on a Buehler Metasery (Buehler, Lake Bluff, Ill., USA). Longitudinal sections of […] were cut using a Reichert-Jung RM 2165 microtome (Leica Microsystems, Jena, Germany) using a D-profile tungsten carbide knife, mounted on charged slides, and stained with either Goldner's trichrome or Toluidine Blue O (pH 3.7).
Experiments were conducted to examine the effects of PEDF treatment on bone in young (44 days) and old (6 month) PEDF knock-out mice. PEDF (200 ng) was delivered i.p. every third day for two weeks in young mice. […]

[8] = test system: hMSCs; assay: Adipogenic differentiation of human MSCs; assay type: cell-based; conditions: PEDF started on day 0, adipogenic medium 10 days
Protocol: as §1
RNA was isolated and processed using the RNAEasy mini kit (Qiagen, Valencia, Calif., USA). Primer probe sets were obtained from a commercial source (Applied Biosystems, Foster City, Calif., USA), and qRT-PCR was performed on a TaqMan ABI 7500 system (Applied Biosystems) as described previously (Schmitz et al., 2011, Am J Pathol, 179: 2990-2999). Target gene expression was normalized against 18S ribosomal RNA using the ΔΔCt method. […]

[9] = test system: femurs in PEDF KO mice; assay: Biomechanical testing of femurs of vehicle and PEDF treated PEDF KO mice; assay type: in vivo, mouse; conditions: versus vehicle
Excerpt: Further experiments were done to compare the biomechanical properties of PEDF-treated and vehicle-treated bones. […] Femur length was not different between vehicle or PEDF-treated groups. PEDF increased bone stiffness, the slope of the load applied to the bone vs displacement of bone. Maximum load was not different in PEDF-treated mice. The deformation of bone after the yield point, a measure of bone ductility increased after PEDF treatment. Displacement of femurs at maximum load and at fracture (Fx) point increased after PEDF treatment, indicating bones that are less brittle with force applied.

[10] = test system: SVCs from PEDF KO mice; assay: Osteoblast differentiation and mineralization of PEDF KO SVCs (Alizarin Red, qRT-PCR); assay type: cell-based, mouse
Protocol: as §3, §4, §5

[11] = PEDF started on day 3, both WT and KO SVCs
[12] = PEDF 500 ng/ml added to IWP-2-treated hMSCs
[13] = osteoblast differentiation, KO SVCs, day 21

DPFFKVPVNKLAAAVSNFGYDLYRVRSSTSPTTN [PEDF 34-mer, PEDF-derived 34-mer peptide]
levels of active β-catenin ([1]; 100 nM peptide with 50 ng/ml Wnt3a): increases the levels of active β-catenin

B1: Wnt3a (protein, UniProt P56704 19-352, looked up)
Protein Wnt-3a: SYPIWWSLAVGPQYSSLGSQPILCASIPGLVPKQLRFCRNYVEIMPSVAEGIKIGIQECQHQFRGRRWNCTTVHDSLAIFGPVLDKATRESAFVHAIASAGVAFAVTRSCAEGTAAICGCSSRHQGSPGKGWKWGGCSEDIEFGGMVSREFADARENRPDARSAMNRHNNEAGRQAIASHMHLKCKCHGLSGSCEVKTCWWSQPDFRAIGDFLKDKYDSASEMVVEKHRESRGWVETLRPRYTYFKVPTERDLVYYEASPNFCEPNPETGSFGTRDRTCNVSSHGIDGCDLLCCGRGHNARAERRREKCRCVFHWCCYVSCQECTRVYDVHTCK
notes: prototypical Wnt agonist ligand
mineralization (Alizarin red) with continuous Wnt3a versus controls [2]: diminished mineralization
active β-catenin under unopposed and continuous Wnt3a ([1]; 50 ng/ml Wnt3a alone): suppresses active β-catenin
LRP6 phosphorylation [3]: increased LRP6 phosphorylation

B2: Pigment epithelium-derived factor (protein)
chain: QNPASPPEEGSPDPDSTGALVEEEDPFFKVPVNKLAAAVSNFGYDLYRVRSSTSPTTNVLLSPLSVATALSALSLGAEQRTESIIHRALYYDLISSPDIHGTYKELLDTVTAPQKNLKSASRIVFEKKLRIKSSFVAPLEKSYGTRPRVLTGNPRLDLQEINNWVQAQMKGKLARSTKEIPDEISILLLGVAHFKGQWVTKFDSRKTSLEDFYLDEERTVRVPMMSDPKAVLRYGLDSDLSCKIAQLPLTGSMSIIFFLPLKVTQNLTLIEESLTSEFIHDIDRELKTVQAVLTVPKLKLSYEGEVTKSLQEMKLQSLFDSPDFSKITGKPIKLTQVEHRAGFEWNEDGAGTTPSPGLQPAHLTFPLDYHLNQPFIFVLRDTDTGALLFIGKILDPRGP
notes: Full-length recombinant human PEDF generated in HEK cells; 50-kDa secreted protein of the SERPIN superfamily
PPARγ suppression, day 1 versus day 3 start ([4]; PEDF 500 ng/ml): greater when PEDF was started on day 1 compared with day 3
adipogenesis (Oil Red O staining) ([4]; PEDF 500 ng/ml added on day 1 or day 3, assessed day 8): significantly inhibited adipogenesis
expression of PPARγ, PGC1α, CEBPα and adipocyte marker ADIPOQ ([4]; PEDF 500 ng/ml started on day 1 or day 3): suppression
inhibition of PGC1α expression [4, 11]: ~50%
inhibition of PPARγ expression [4, 11]: ~50%
suppression of PPARγ, adiponectin, and other adipocyte markers ([4]; compared with control-treated cells, P<0.001): ~90%
alkaline phosphatase by staining and protein levels [5]: increased alkaline phosphatase
PPARγ expression in cells with LRP6 knockdown [6]: induced PPARγ expression
PPARγ expression in control (vector) cells [6]: significantly inhibited PPARγ expression
trabecular bone volume (BV) [7]: increases
trabecular thickness [7]: increases
adipogenesis of hMSCs [8]: inhibits adipogenesis
proadipogenic transcription factors in hMSCs [8]: inhibited proadipogenic transcription factors
LRP6 phosphorylation in IWP-2-treated cells [3, 12]: led to LRP6 phosphorylation
active β-catenin in IWP-2-treated cells [3, 12]: enhanced levels of active β-catenin
LRP6 phosphorylation [3]: increased LRP6 phosphorylation
active β-catenin levels ([3]; medium conditions where endogenous Wnt proteins would be present): only minimal effects
bone stiffness (slope of load vs displacement) [9]: increased
deformation of bone after the yield point (bone ductility) [9]: increased
displacement of femurs at fracture (Fx) point [9]: increased
displacement of femurs at maximum load [9]: increased
femur length [9]: not different
flexibility of femurs [9]: enhances the flexibility
maximum load [9]: not different
Alizarin Red staining (mineralization) ([10]; PEDF treatment for 21 days, KO SVCs, versus vehicle-treated cells): increased Alizarin Red staining
Collagen Ia expression ([10]; day 21 of differentiation): not different
Runx2 expression ([10]; day 21 of differentiation): did not affect
Sp7 expression ([10]; day 21 of differentiation): did not affect
reduction of PPARγ expression [10, 13]: ~80%
transforming growth factor β (TGF-β) expression [10, 13]: reduced the expression
